In patent CN117715654A (OXFORD BIOTHERAPEUTICS LTD, dated 2024):

Biological target: human CD205 (human)
Test: cell-based or functional assay

B1: 16A5(CD205_A1), DM4-conjugated anti-CD205 (anti-LY75) monoclonal antibody (antibody, V domains shown)
VH: EVQLVESGGGLVKPGGSLRLSCAASGFTYSNAWMSWVRQAPGKGLEWVGRIKSKTDGGTTDYAAPVQGRFTISRDDSKNTLYLQMNSLKTEDTAVYYCTIFGVVSFDYWGQGTLVTVSS
VL: DVQMTQSPSSLSASVGDRVTITCRASQSISDYLSWYQQRPGKAPNLLIYAASNLKTGVPSRFSGSGSGTDFTLTISTLQPEDFATYYCQQSYRSPWTFGQGTKVEIKR
modifications: conjugated to maytansinoid DM4; attachment residues not stated
- EC50 of cytotoxicity on Raji cells (Cell-Titer Glo, 96 h): 0.728 nM
- EC50 of cytotoxicity on THP1 cells (Cell-Titer Glo, 96 h): 0.0375 nM
